Experiments:
[1] = target: T1, Porcine pancreatic elastase type III (Sus scrofa, UniProt P00772); test: Elastase inhibitory capacity (EIC) assay with chromogenic substrate SA3 pNA; format: biochemical; settings: for % EIC Recovered: recovery across covalent coupling
T1 construct: purchased Sigma Chemicals Co. (St. Louis, MO)
From the text: Porcine pancreatic elastase type III and chromogenic substrate N-succinyl-L-anlanyl-L-alanyl-L-alanyl-p-nitroanilide (SA3 pNA) were obtained from Sigma Chemicals Co. (St. Louis, MO). Hydrolysis of the chromogenic substrate by the elastase liberates p-nitroaniline which gives a yellow color whose absorbance is measurable spectrophotometrically (Model 1084 UV Spectrophotometer, Gilford Instruments, Oberlin, OH) at 405 nm.
Comparisons of the linear changes of absorbance with time both in the presence and in the absence of sample alpha-l-proteinase inhibitor and of sample alpha-l-proteinase inhibitor-dextran covalent complex were made. The amount of inhibitor was then calculated based on the known molecular weights of the elastase and alpha-l-proteinase inhibitor, on the known 1:1 stoichrometry, and on the known amount of elastase used. A pool of normal human plasma (>1000 donors) was used as the standard and assigned a value of 1 μ/ml of α1 PI.

[2] = tested on: Antiserum (rabbit anti-human) to alpha-l-proteinase inhibitor; test: Precipitin reaction with rabbit antiserum to the unmodified protein; format: binding; settings: for Precipitin Reaction: rabbit antiserum dil. 1:2; for Amount of protein needed to obtain a strong precipitin reaction: rabbit antiserum to the unmodified protein
Method: Antiserum (rabbit anti-human) to alpha-l-proteinase inhibitor was obtained from Miles Laboratories (Elkhart, IN).
For unmodified alpha-1-proteinase inhibitor, only 0.092 μg of protein was sufficient to obtain a strong precipitin reaction. For the 0.117 moles dextran/mole alpha-1-proteinase inhibitor conjugate, 14.5 μg of alpha-1-proteinase inhibitor was needed to elicit a similar response--a very significant increase of antigen concentration. For the 0.585 moles dextran/mole alpha-1-proteinase inhibitor conjugate increase of antigen concentration up to 29.0 μg was not sufficient to obtain a strong precipitin reaction with the antiserum.

[3] = target: T1, Porcine pancreatic elastase type III; test: Association rate constant (kassoc) between enzyme and inhibitor; format: biochemical; settings: for t0.5 (half life of the enzyme-inhibitor association reaction) / kassoc, rate constant for the association between the enzyme and the inhibitor: equimolar enzyme and inhibitor, 3.37×10^-7, 37° C., pH 7.4; for kassoc, rate constant for the association between the enzyme and the inhibitor: calculated by equation (4); for Initial Reac. Rate: 37° C.
Method: Association constants (kassoc) between the enzyme (E) and the inhibitor (I) were determined as follows: 25 μl each of equimolar amounts of the enzyme and the inhibitor were incubated at 37° C. with 1950 μl of buffer (0.05M TRIS, 0.15M NaCl, pH 7.4) (TRIS® is tris(hydroxymethyl)amino methane, supplied by Sigma, St. Louis, Mo.) to obtain a resultant concentration of 3.37×10^-7. At various times, a 200 μl aliquot of the enzyme-inhibitor solution was added to 780 μl buffer and 20 μl substrate (SA3 pNA) (60 mM) and the hydrolysis rate followed in the temperature controlled (37° C.) cuvette with a recorder (Model 6051, Gilford Instruments, Oberlin, Ohio) attachment. During hydrolysis no further enzyme-inhibitor association was assumed (5 fold dilution compared to preincubation) and the initial reaction rate (v) was indicative of the free enzyme (E) present at the end of the respective preincubation times. Enzyme inhibitor association is represented as: [formula] for kdissoc .perspectiveto.0 and equimolar concentrations of E and I we get
With initial conditions t=0, E=Eo (all free enzyme) equation (2) integrates to
By defining half life of the reaction t0.5 to be at E=0.5Eo we get
The initial reaction rate (Δ absorbance/5 minutes) depicts the hydrolysis rate of the substrate by the free enzyme present following the respective preincubation time. Initial reaction rate, in the absence of the inhibitor, was determined and the time required for this rate to decrease to half of its original value (t0.5) was calculated. Equation (4) was subsequently used to calculate kassoc for each of the 3 cases.

elastase [4] = target: T2, elastase (Sus scrofa, UniProt P00772); test: pH stability (pH 3.0), recovery of EIC; format: physicochemical, porcine; settings: pH 3.0 for 24 hours at +5° C.; for Recovery of EIC as % of Control After Adjustment to pH 7.4, Incubation Time 24 hrs. (5° C.): back to pH 7.40, further 24 hrs. at 5° C.; for Recovery of EIC as % of Control After Adjustment to pH 7.4, Immediate: then back to pH 7.40, assayed immediately
T2 construct: purchased Sigma Chemicals Co. (St. Louis, MO)
Method: In order to investigate the pH stability of these preparations, experimental samples were adjusted to pH 3.0 with controls at pH 7.40 and incubated for 24 hours at +5° C. Following this, pH was adjusted back up to 7.40 for the experimental samples and EIC assays carried out immediately. Samples were further incubated for 24 hours at +5° C. and reassayed.

elastase [5] = target: T2, elastase; test: Heat stability at 60° C., EIC readout; format: physicochemical, porcine; settings: within 60 minutes (FIG. 1)
Method: Alpha-1-proteinase inhibitor and its dextran conjugates, with and without added beef liver catalase as antioxidant, were heated in closed tubes at 60±0.2° C. The tubes were preheated and due to large mass difference the samples reached the bath temperature in less than 60 seconds. At designated time intervals samples were withdrawn and instantaneously cooled down (by ice bath) to room temperature prior to assay.
A significant difference here is observed between the native protein and its conjugates.

elastase [6] = target: T2, elastase; test: Oxidative inactivation by H2O2, recovery of EIC; format: physicochemical, porcine; settings: 0-28 mM H2O2, 37° C., 1 hour, pH 7.4 (FIG. 2)
Method: Hydrogen peroxide (30% solution, Sigma Chemicals) was used as the oxidation agent to investigate the effect of 0-28 mM H2 O2 on the recovery of elastase inhibitory capacity (EIC) following incubation at 37° C. for 1 hour.
FIG. 2 (oxidation at pH 7.4) depicts the effects of various concentrations of H2 O2 on the samples. […] It is to be understood that any antioxidant enzyme may be used, e.g. catalase or an equivalent enzyme such as superoxide dismutase.

porcine elastase = settings: each at 1.4×10^-8 M; Beatty et al, J. Biol. Chem., 255, 3931 (1980); cited from earlier work
[7] = bovine liver catalase modified with methoxypolyethylene glycol; Abuchowski et al; cited from earlier work

T1 sequence (P00772 27-266): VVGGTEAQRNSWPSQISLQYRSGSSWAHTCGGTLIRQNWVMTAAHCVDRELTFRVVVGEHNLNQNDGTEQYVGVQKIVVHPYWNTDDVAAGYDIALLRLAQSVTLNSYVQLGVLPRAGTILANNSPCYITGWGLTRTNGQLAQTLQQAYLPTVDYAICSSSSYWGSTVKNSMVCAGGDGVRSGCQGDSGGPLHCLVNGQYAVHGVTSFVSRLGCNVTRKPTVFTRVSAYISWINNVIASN
T2 sequence (P00772 27-266): as above

4: alpha-1-proteinase inhibitor-dextran complex, dextran mol. wt. 10,300, 100 mg inhibitor per gram of dextran, ratio 0.117 [Example 4]
% EIC Recovered [1]: 28.8%
Precipitin Reaction ([2]; antigen conc. 14.5 μg): Strong
Amount of protein needed to obtain a strong precipitin reaction [2]: 14.5 µg
t0.5 (half life of the enzyme-inhibitor association reaction) [3]: 21.49 s
kassoc, rate constant for the association between the enzyme and the inhibitor [3]: 141000 M⁻¹ s⁻¹
Initial Reac. Rate ([3]; preincubation time 20 secs.): 0.450 Δ absorbance/5 minutes
Initial Reac. Rate ([3]; preincubation time 45 secs.): 0.285 Δ absorbance/5 minutes
Initial Reac. Rate ([3]; preincubation time 75 secs.): 0.195 Δ absorbance/5 minutes
Initial Reac. Rate ([3]; preincubation time 120 secs.): 0.130 Δ absorbance/5 minutes
Recovery of EIC as % of Control After Adjustment to pH 7.4, Incubation Time 24 hrs. (5° C.) (elastase [4]): 81%
Recovery of EIC as % of Control After Adjustment to pH 7.4, Immediate (elastase [4]): 68%

5: alpha-1-proteinase inhibitor-dextran complex, dextran mol. wt. 10,300, 20 mg inhibitor per gram of dextran, ratio 0.585 [Example 5]
% EIC Recovered [1]: 18.4%
Precipitin Reaction ([2]; antigen conc. 1.95 μg): Weak
Precipitin Reaction ([2]; antigen conc. 29.0 μg): Weak
Amount of protein needed to obtain a strong precipitin reaction [2]: > 29.0 µg
t0.5 (half life of the enzyme-inhibitor association reaction) [3]: 34.67 s
kassoc, rate constant for the association between the enzyme and the inhibitor [3]: 85600 M⁻¹ s⁻¹
Initial Reac. Rate ([3]; preincubation time 25 secs.): 0.495 Δ absorbance/5 minutes
Initial Reac. Rate ([3]; preincubation time 65 secs.): 0.285 Δ absorbance/5 minutes
Initial Reac. Rate ([3]; preincubation time 100 secs.): 0.205 Δ absorbance/5 minutes
Initial Reac. Rate ([3]; preincubation time 145 secs.): 0.135 Δ absorbance/5 minutes
Recovery of EIC as % of Control After Adjustment to pH 7.4, Immediate (elastase [4]): 55%

Native α1 PI: human plasma glycoprotein alpha-1-proteinase inhibitor, molecular weight 53,000, purified from Cohn Fraction IV-1
Elastase inhibitory capacity/mg total protein ([1]; purified from Cohn Fraction IV-1): 1.5
Precipitin Reaction ([2]; antigen conc. 0.092 μg): Strong
Amount of protein needed to obtain a strong precipitin reaction [2]: 0.092 µg
kassoc, rate constant for the association between the enzyme and the inhibitor [3]: 185000 M⁻¹ s⁻¹
kassoc, rate constant for the association between the enzyme and the inhibitor ([3]; listed as native protein): 185000 M⁻¹ s⁻¹
Initial Reac. Rate ([3]; preincubation time 15 secs.): 0.460 Δ absorbance/5 minutes
Initial Reac. Rate ([3]; preincubation time 30 secs.): 0.310 Δ absorbance/5 minutes
Initial Reac. Rate ([3]; preincubation time 60 secs.): 0.173 Δ absorbance/5 minutes
Initial Reac. Rate ([3]; preincubation time 65 secs.): 0.170 Δ absorbance/5 minutes
Initial Reac. Rate ([3]; preincubation time 90 secs.): 0.128 Δ absorbance/5 minutes
Recovery of EIC as % of Control After Adjustment to pH 7.4, Incubation Time 24 hrs. (5° C.) (elastase [4]): 66%
Loss of initial activity (EIC) on heating (elastase [5]): > 90%
Effect of H2O2 oxidation on EIC (elastase [6]): significant progressive loss of EIC
kassoc (porcine elastase): 1×10^5 M^-1 sec.^-1

B1: PEG-1900-catalase: bovine liver catalase covalently modified with methoxypolyethylene glycol of 1900 daltons using cyanuric chloride (Abuchowski et al) (conjugate, UniProt P00432 2-527, looked up)
Catalase: ADNRDPASDQMKHWKEQRAAQKPDVLTTGGGNPVGDKLNSLTVGPRGPLLVQDVVFTDEMAHFDRERIPERVVHAKGAGAFGYFEVTHDITRYSKAKVFEHIGKRTPIAVRFSTVAGESGSADTVRDPRGFAVKFYTEDGNWDLVGNNTPIFFIRDALLFPSFIHSQKRNPQTHLKDPDMVWDFWSLRPESLHQVSFLFSDRGIPDGHRHMNGYGSHTFKLVNANGEAVYCKFHYKTDQGIKNLSVEDAARLAHEDPDYGLRDLFNAIATGNYPSWTLYIQVMTFSEAEIFPFNPFDLTKVWPHGDYPLIPVGKLVLNRNPVNYFAEVEQLAFDPSNMPPGIEPSPDKMLQGRLFAYPDTHRHRLGPNYLQIPVNCPYRARVANYQRDGPMCMMDNQGGAPNYYPNSFSAPEHQPSALEHRTHFSGDVQRFNSANDDNVTQVRTFYLKVLNEEQRKRLCENIAGHLKDAQLFIQKKAVKNFSDVHPEYGSRIQALLDKYNEEKPKNAVHTYVQHGSHLSAREKANL
modifications: mPEG 1900
Retained enzymatic activity [7]: 93%

B2: PEG-5000-catalase: bovine liver catalase covalently modified with methoxypolyethylene glycol PEG-5000 using cyanuric chloride (Abuchowski et al) (conjugate, UniProt P00432 2-527, looked up)
Catalase: B1 Catalase
modifications: mPEG 5000
Retained enzymatic activity [7]: 95%
